The numbers were not newly measured in article PMC13615496, which cites them from elsewhere.

The data set concerns the target PYL (Arabidopsis thaliana) (UniProt Q8VZS8).
Sequence of UniProt Q8VZS8 (Q8VZS8 2-221): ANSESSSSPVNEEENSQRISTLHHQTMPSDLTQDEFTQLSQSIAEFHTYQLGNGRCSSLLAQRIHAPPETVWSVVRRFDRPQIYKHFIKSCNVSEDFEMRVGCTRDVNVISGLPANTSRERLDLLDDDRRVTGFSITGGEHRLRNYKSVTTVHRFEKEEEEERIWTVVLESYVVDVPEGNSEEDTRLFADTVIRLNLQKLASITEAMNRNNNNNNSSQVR

Take ABI (from UniProt P49597): the dissociation constant Kd is 52 µM.
